Laboratory results from the supplement of paper PMC10126150.
± gives the standard deviation of the averaged measurements.

Each sequence was assayed on ATP (assay: switch fluorescence ratio, 500 uM ATP over buffer (Cy3 cluster intensity, sum of 5 cycles each) (fold (ratio)); higher = stronger signal-on switching upon ATP binding; sequences stand for … in TCGTCGGCAGCGTCAGATGTGTATAAGAGACAGTTTTTTTTTTTTTTTTTTTTTTTTT…TC). Conditions: aptamer strand: ATP DNA aptamer (quencher-CACCTGGGGGAGTATTGCGGAGGAAGG + anchor), 100 nM annealed; ATP concentration: 500 uM.
How it was run: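 Cy3-labelled switching-strand clusters on a modified Illumina MiSeq flow-cell were annealed to 100 nM quencher-labelled ATP aptamer, imaged in selection buffer, then imaged after 15 min with 500 uM ATP at 22 °C. Five buffer/ATP cycles ran, with NaOH stripping and re-annealing between them. The fluorescence ratio is summed target-cycle over summed buffer-cycle Cy3 intensity per cluster, averaged per switch-domain sequence. Clusters outside 100-1000 RFU were excluded.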
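Also: ATP exposure 15 min at 22 °C before imaging.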

Row | Sequence | switch fluorescence ratio
1 | TGAAGGAGAA | 0.929 ± 0.037
2 | TGAAGGGGAT | 1.02 ± 0.045
3 | TGAAGTACTT | 1.06 ± 0.011
4 | TGAAGTCGGT | 0.9681 ± 0.0066
5 | TGAAGTTGGG | 1.11 ± 0.15
6 | TGAATAGTGT | 0.996 ± 0.044
7 | TGAATCGGGG | 1.027 ± 0.0014
8 | TGAATGAGGG | 0.993 ± 0.029
9 | TGAATGCGCC | 1.01 ± 0.025
10 | TGAATGCTTT | 1.23 ± 0.3
11 | TGAATGGAGG | 0.988 ± 0.042
12 | TGAATGGGGT | 0.987 ± 0.02
13 | TGAATGGTCG | 1.05 ± 0.036
14 | TGAATTCGGG | 1.01 ± 0.064
15 | TGAATTCTTG | 1 ± 0.034
16 | TGAATTGCAT | 0.96601 ± 0.00064
17 | TGAATTGGTC | 1.06 ± 0.16
18 | TGAATTGTTT | 0.993 ± 0.043
19 | TGAATTTCTG | 1.029 ± 0.0094
20 | TGAATTTGTA | 0.993 ± 0.03
21 | TGACAAGGGG | 1.05 ± 0.044
22 | TGACACATGA | 1.02 ± 0.013
23 | TGACACTTGG | 0.99 ± 0.011
24 | TGACAGTCAG | 0.968 ± 0.02
25 | TGACATAATT | 1.01 ± 0.046

Row | Sequence | switch fluorescence ratio
26 | TGACATGGGG | 0.9827 ± 0.0051
27 | TGACCACCAG | 0.993 ± 0.019
28 | TGACCGAATT | 1.03 ± 0.054
29 | TGACCGAGCG | 0.9603 ± 0.0065
30 | TGACCGATCA | 1 ± 0.021
31 | TGACCGGCTT | 1.05 ± 0.013
32 | TGACGAACTC | 1.32 ± 0.045
33 | TGACGAGCGG | 1.04 ± 0.061
34 | TGACGCAGGA | 2.53 ± 1.8
35 | TGACGCCTGA | 1.02 ± 0.022
36 | TGACGGATGG | 1.03 ± 0.051
37 | TGACGGTGGC | 1.02 ± 0.017
38 | TGACTAATAA | 1.02 ± 0.013
39 | TGACTAGGGA | 0.992 ± 0.021
40 | TGACTCGAGT | 1.01 ± 0.012
41 | TGACTGCGGG | 1.01 ± 0.015
42 | TGACTGGCTT | 1.014 ± 0.01
43 | TGACTTATGT | 1.014 ± 0.0037
44 | TGACTTTTGT | 0.98 ± 0.0015
45 | TGAGAAGACT | 1.03 ± 0.033
46 | TGAGACGAAA | 1.07 ± 0.052
47 | TGAGAGGGAC | 1.05 ± 0.013
48 | TGAGAGGGGG | 1 ± 0.083
49 | TGAGAGGTGG | 1 ± 0.036
50 | TGAGAGTTCA | 1.006 ± 0.0032

Row | Sequence | switch fluorescence ratio
51 | TGAGATCACT | 1 ± 0.013
52 | TGAGATCTGG | 0.982 ± 0.035
53 | TGAGATTATT | 1.01 ± 0.038
54 | TGAGATTCAG | 0.985 ± 0.02
55 | TGAGATTGTG | 1.02 ± 0.037
56 | TGAGATTGTT | 1.01 ± 0.028
57 | TGAGCAAGGT | 1.203 ± 0.0039
58 | TGAGCCCCGG | 1.03 ± 0.028
59 | TGAGCCCGCT | 1 ± 0.016
60 | TGAGCCCGGG | 0.97 ± 0.013
61 | TGAGCGACTT | 1.005 ± 0.0095
62 | TGAGCGGTAG | 1.028 ± 0.004
63 | TGAGCGTGAG | 1.01 ± 0.015
64 | TGAGCTGATG | 0.986 ± 0.032
65 | TGAGGAAGGT | 1.016 ± 0.009
66 | TGAGGAATTT | 1 ± 0.029
67 | TGAGGACAGG | 1.06 ± 0.054
68 | TGAGGAGAAT | 0.996 ± 0.028
69 | TGAGGAGGGG | 0.989 ± 0.048
70 | TGAGGATCCA | 0.985 ± 0.013
71 | TGAGGCAGCT | 1.06 ± 0.11
72 | TGAGGCAGGA | 1.04 ± 0.042
73 | TGAGGGAAGA | 1.05 ± 0.051
74 | TGAGGGACGC | 0.996 ± 0.021
75 | TGAGGGATTC | 1 ± 0.047

Row | Sequence | switch fluorescence ratio
76 | TGAGGGCAGG | 1.023 ± 0.007
77 | TGAGGGCGGC | 0.962 ± 0.12
78 | TGAGGGCTAG | 1 ± 0.015
79 | TGAGGGCTTT | 1.013 ± 0.0023
80 | TGAGGGGATT | 1 ± 0.022
81 | TGAGGGGCTA | 1.01 ± 0.049
82 | TGAGGGGGAA | 1.03 ± 0.033
83 | TGAGGGGGGC | 1.01 ± 0.044
84 | TGAGGGGGTA | 0.995 ± 0.033
85 | TGAGGGGTGC | 1.04 ± 0.029
86 | TGAGGGTGGG | 1.01 ± 0.058
87 | TGAGGGTTTG | 1.02 ± 0.044
88 | TGAGGTCCCA | 1.01 ± 0.014
89 | TGAGGTGCGA | 1.01 ± 0.023
90 | TGAGGTTAGG | 1 ± 0.012
91 | TGAGGTTTGG | 1.02 ± 0.028
92 | TGAGTAAGGG | 0.991 ± 0.029
93 | TGAGTAAGTA | 0.995 ± 0.048
94 | TGAGTAGAGG | 1 ± 0.02
95 | TGAGTAGCTC | 0.9715 ± 0.0037
96 | TGAGTAGGGC | 0.948 ± 0.041
97 | TGAGTAGGGT | 0.992 ± 0.011
98 | TGAGTATTTG | 0.98 ± 0.025
99 | TGAGTCAATT | 0.99 ± 0.032
100 | TGAGTCTCTG | 0.998 ± 0.012

Row | Sequence | switch fluorescence ratio
101 | TGAGTCTGCG | 1.02 ± 0.12
102 | TGAGTCTTCG | 1.03 ± 0.017
103 | TGAGTGACTT | 0.974 ± 0.012
104 | TGAGTGGGG | 0.975 ± 0.05
105 | TGAGTGGGGG | 0.982 ± 0.014
106 | TGAGTGTTAC | 1 ± 0.028
107 | TGAGTTGTGT | 1.03 ± 0.075
108 | TGATAAAACG | 0.992 ± 0.041
109 | TGATAAACGG | 1 ± 0.019
110 | TGATAAGTAC | 1.38 ± 0.065
111 | TGATAATAGT | 0.989 ± 0.021
112 | TGATAATTAC | 1.19 ± 0.27
113 | TGATAATTTT | 1 ± 0.039
114 | TGATACACGT | 1 ± 0.013
115 | TGATACCGTG | 1.01 ± 0.017
116 | TGATACGGAG | 0.983 ± 0.06
117 | TGATACTCTG | 1.03 ± 0.029
118 | TGATAGATGT | 0.983 ± 0.026
119 | TGATAGGGTT | 0.985 ± 0.014
120 | TGATATTT | 0.991 ± 0.022
121 | TGATATTTGC | 0.969 ± 0.033
122 | TGATCCTATG | 0.992 ± 0.016
123 | TGATCGGCTA | 1.01 ± 0.049
124 | TGATCGTCTG | 1.031 ± 0.0017
125 | TGATGAAGAT | 0.9817 ± 0.0071

Row | Sequence | switch fluorescence ratio
126 | TGATGAATGA | 1.001 ± 0.0021
127 | TGATGCAAGT | 1.09 ± 0.032
128 | TGATGCATCG | 1 ± 0.034
129 | TGATGGAAAA | 0.998 ± 0.023
130 | TGATGGATAT | 0.9921 ± 0.0021
131 | TGATGGGGGG | 0.994 ± 0.021
132 | TGATGGGGTT | 0.9969 ± 0.0078
133 | TGATGGGTAG | 0.998 ± 0.028
134 | TGATGGTGGC | 0.997 ± 0.017
135 | TGATGTGGCG | 0.994 ± 0.041
136 | TGATGTGGTG | 0.976 ± 0.018
137 | TGATGTTATG | 0.9911 ± 0.0025
138 | TGATTAAAGG | 1.02 ± 0.025
139 | TGATTAAATA | 0.994 ± 0.028
140 | TGATTACTAG | 0.974 ± 0.017
141 | TGATTCCATT | 0.9991 ± 0.0052
142 | TGATTCTAAG | 0.977 ± 0.019
143 | TGATTCTTCG | 1.01 ± 0.023
144 | TGATTCTTGA | 1.03 ± 0.064
145 | TGATTGAGCC | 0.998 ± 0.047
146 | TGATTGATTG | 1.03 ± 0.066
147 | TGATTGCAGC | 0.994 ± 0.028
148 | TGATTGCCCT | 0.9925 ± 0.0044
149 | TGATTGGGAA | 0.995 ± 0.021
150 | TGATTGGGAC | 0.9673 ± 0.0074

Row | Sequence | switch fluorescence ratio
151 | TGATTGTATT | 0.979 ± 0.015
152 | TGATTGTTAG | 0.988 ± 0.023
153 | TGATTTAATT | 0.97 ± 0.036
154 | TGATTTAGGA | 1.01 ± 0.036
155 | TGATTTATTG | 0.985 ± 0.03
156 | TGATTTATTT | 0.9927 ± 0.0048
157 | TGATTTCACG | 1.02 ± 0.011
158 | TGATTTCTTT | 0.997 ± 0.0018
159 | TGATTTGACA | 1.01 ± 0.013
160 | TGATTTGGGT | 1.01 ± 0.021
161 | TGATTTTACG | 0.983 ± 0.019
162 | TGATTTTGGT | 1.01 ± 0.025
163 | TGCAAAAGGG | 1.024 ± 0.0074
164 | TGCAAAATAA | 1.17 ± 0.24
165 | TGCAAAATTG | 0.995 ± 0.024
166 | TGCAAAGGTG | 1.34 ± 0.094
167 | TGCAAATTCC | 1.11 ± 0.021
168 | TGCAACACAT | 1.03 ± 0.029
169 | TGCAACGTTT | 0.971 ± 0.024
170 | TGCAAGAAGT | 1.022 ± 0.0069
171 | TGCAAGGGTT | 1.12 ± 0.088
172 | TGCAAGGTTA | 1.02 ± 0.051
173 | TGCAAGGTTT | 1.05 ± 0.1
174 | TGCAAGTGGC | 1.09 ± 0.15
175 | TGCAATAATA | 1.06 ± 0.091

Row | Sequence | switch fluorescence ratio
176 | TGCAATGTTT | 1.38 ± 0.52
177 | TGCACAGGCT | 1.119 ± 0.0062
178 | TGCACATTCC | 1.7 ± 0.15
179 | TGCACCCGTA | 1.054 ± 0.0013
180 | TGCACGCAGC | 1.25 ± 0.09
181 | TGCACGGTTG | 1.002 ± 0.0026
182 | TGCACTCTCA | 1.04 ± 0.032
183 | TGCAGAAGCC | 1.02 ± 0.026
184 | TGCAGACAGA | 1.02 ± 0.055
185 | TGCAGCTGCG | 0.974 ± 0.049
186 | TGCAGGAGAA | 0.9718 ± 0.0087
187 | TGCAGGAGCT | 1.01 ± 0.032
188 | TGCAGGATGC | 0.971 ± 0.027
189 | TGCAGGGAGT | 1.04 ± 0.037
190 | TGCAGGGCAG | 0.98885 ± 0.00071
191 | TGCAGGGGCT | 1.15 ± 0.22
192 | TGCAGGTGGC | 1.13 ± 0.035
193 | TGCAGGTTTT | 1.01 ± 0.054
194 | TGCAGTAGCG | 0.9936 ± 0.0051
195 | TGCAGTGCGT | 1.0018 ± 9.8e-05
196 | TGCAGTGGGA | 1.02 ± 0.016
197 | TGCAGTTTGT | 0.9929 ± 0.0065
198 | TGCATCAGCT | 1.03 ± 0.046
199 | TGCATGGCTG | 0.99 ± 0.01
200 | TGCATGGGGT | 1.01 ± 0.022
